The values below come from publication doi:10.1101/2022.01.14.476392 (bioRxiv, 2022).

The series deals with the molecule itself. Kind of series: BLI.

B1: diol-dehydratase PduCDE (complex, Salmonella enterica)
chain 1: MRSKRFEALAKRPVNQDGFVKEWIEEGFIAMESPNDPKPSIKIVNGAVTELDGKPVSEFDLIDHFIARYGINLNRAEEVMAMDSVKLANMLCDPNVKRSEIVPLTTAMTPAKIVEVVSHMNVVEMMMAMQKMRARRTPSQQAHVTNVKDNPVQIAADAAEGAWRGFDEQETTVAVARYAPFNAIALLVGSQVGRPGVLTQCSLEEATELKLGMLGHTCYAETISVYGTEPVFTDGDDTPWSKGFLASSYASRGLKMRFTSGSGSEVQMGYAEGKSMLYLEARCIYITKAAGVQGLQNGSVSCIGVPSAVPSGIRAVLAENLICSSLDLECASSNDQTFTHSDMRRTARLLMQFLPGTDFISSGYSAVPNYDNMFAGSNEDAEDFDDYNVIQRDLKVDGGLRPVREEDVIAIRNKAARALQAVFAGMGLPPITDEEVEAATYAHGSKDMPERNIVEDIKFAQEIINKNRNGLEVVKALAQGGFTDVAQDMLNIQKAKLTGDYLHTSAIIVGDGQVLSAVNDVNDYAGPATGYRLQGERWEEIKNIPGALDPNEID
chain 2: MEINEKLLRQIIEDVLRDMKGSDKPVSFNAPAASTAPQTAAPAGDGFLTEVGEARQGTQQDEVIIAVGPAFGLAQTVNIVGLPHKSILREVIAGIEEEGIKARVIRCFKSSDVAFVAVEGNRLSGSGISIGIQSKGTTVIHQQGLPPLSNLELFPQAPLLTLETYRQIGKNAARYAKRESPQPVPTLNDQMARPKYQAKSAILHIKETKYVVTGKNPQELRVAL
chain 3: MNTDAIESMVRDVLSRMNSLQGDAPAAAPAAGGTSRSAKVSDYPLANKHPEWVKTATNKTLDDFTLENVLSNKVTAQDMRITPETLRLQASIAKDAGRDRLAMNFERAAELTAVPDDRILEIYNALRPYRSTKEELLAIADDLENRYQAKICAAFVREAAGLYVERKKLKGDD
Turning to B1, the equilibrium dissociation constant (Kd) amounted to 3.5 µM. This counts as single-digit micromolar.
